Results on one substance are retold here after PMC9687312.

The target of assay [1] is MGL Biot-ECD (biotinylated extracellular domain of MGL) (UniProt Q8IUN9). Put plainly: SPR.
Assay [2] addresses DC-SIGN Biot-ECD (biotinylated extracellular domain of DC-SIGN) (UniProt Q9NNX6). Put plainly: SPR. On the technique in general: In SPR one partner is held on a chip, and binding of the other changes the refractive index at the surface.
UniProt Q9NNX6, sequence (Q9NNX6 59-404): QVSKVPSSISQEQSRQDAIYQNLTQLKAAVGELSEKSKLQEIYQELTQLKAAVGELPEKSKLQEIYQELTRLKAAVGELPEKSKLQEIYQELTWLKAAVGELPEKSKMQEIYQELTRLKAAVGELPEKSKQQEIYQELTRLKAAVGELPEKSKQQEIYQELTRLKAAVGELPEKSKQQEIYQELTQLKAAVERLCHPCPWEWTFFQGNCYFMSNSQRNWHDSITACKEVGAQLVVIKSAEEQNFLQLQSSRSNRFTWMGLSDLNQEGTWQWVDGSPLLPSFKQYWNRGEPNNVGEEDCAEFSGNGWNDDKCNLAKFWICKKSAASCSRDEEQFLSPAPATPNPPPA

UniProt Q8IUN9, sequence (Q8IUN9 61-316): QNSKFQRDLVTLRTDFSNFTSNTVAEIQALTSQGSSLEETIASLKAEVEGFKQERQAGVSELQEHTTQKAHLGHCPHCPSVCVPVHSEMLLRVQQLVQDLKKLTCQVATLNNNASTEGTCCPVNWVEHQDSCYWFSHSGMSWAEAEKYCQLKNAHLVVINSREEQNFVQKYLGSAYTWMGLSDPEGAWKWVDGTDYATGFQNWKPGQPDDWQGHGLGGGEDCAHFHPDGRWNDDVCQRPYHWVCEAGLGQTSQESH

The Kd is the concentration at which binding is half-saturated. Regarding “Spike Receptor Binding Domain of SARS-CoV-2 fused to the SpyCatcher (RBD-SC) (from UniProt P0DTC2 320-554)”, the Kd in assay [1] is 982 nM; in assay [2], 601 nM.
